For the assay, the target named is T1, human BTLA (human, UniProt Q7Z6A9 31-289).
T1 construct: also called hBTLA; HEK293.hBTLA
T1 sequence: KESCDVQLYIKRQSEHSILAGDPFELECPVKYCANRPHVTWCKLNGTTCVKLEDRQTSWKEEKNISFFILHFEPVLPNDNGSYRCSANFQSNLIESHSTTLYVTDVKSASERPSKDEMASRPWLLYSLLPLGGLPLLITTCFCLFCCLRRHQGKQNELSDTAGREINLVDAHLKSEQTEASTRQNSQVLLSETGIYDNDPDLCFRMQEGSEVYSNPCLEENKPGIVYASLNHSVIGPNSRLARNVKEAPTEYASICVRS
As to the kind of experiment: flow cytometry, HEK293 cells overexpressing human BTLA. The method, then:
HEK293 cells overexpressing human BTLA and Expi293 cells overexpressing cynomolus BTLA were incubated with different concentrations of humanized anti-BTLA antibodies. Anti-BTLA antibody binding to target cells were quantified with an AF647-conjugated anti-human IgG Fc secondary antibody by flow cytometry.

B1: HFB6-4hz19-hG1 (antibody, human IgG1, V domains shown)
VH: QVQLVQSGAEVKKPGSSVKVSCKTSGFNIKDTYIHWVRQAPGQGLEWIGRNDPANGNTKYAQKFQGRATITADESTSTAYMELSSLRSEDTAVYYCASYEGYYERFGYWGQGTLVTVSS
VL: DIVMTQSPDSLAVSLGERATINCKSSQSLLDRDGKTYLNWLQQKPGQSPKRLIYLVSKLDSGVPDRFSGSGSGTDFTLTISSLQAEDLAVYYCWQDTHFPYTFGQGTKLEIK
notes: Humanized variant of HFB6-4, human IgG1 (hG1)
Consider B1, for which the binding result was “binds”.

B2: HFB6-4hz20-hG1 (antibody, human IgG1, V domains shown)
VH: QVQLVQSGAEVKKPGASVKVSCKTSGFNIKDTYIHWVRQAPGQGLEWIGRNDPANGNTKYAQKFQGRVTMTADTSTSTVYMELSSLRSEDTAVYYCASYEGYYERFGYWGQGTLVTVSS
VL: DIVMTQSPDSLAVSLGERATINCKSSQSLLDRDGKTYLNWLQQKPGQSPKRLIYLVSKLDSGVPDRFSGSGSGTDFTLTISSLQAEDLAVYYCWQDTHFPYTFGQGTKLEIK
notes: as for B1
Take B2: the binding result is listed as “binds”.

The record behind these values is patent US20250388673A1 (HIFIBIO, published 2025).
